Reference: patent US20090136510A1 (Eli Lilly, published 2009)

T1: recombinant human RON protein (rh-RON protein, R&D Systems; recombinant human MSPR) (human, UniProt Q04912 25-571)
T1 construct: Bought soluble recombinant protein; also called rhu-RON protein; rh-MSPR; not shown: His tag on the recombinant protein
T1 sequence (looked up): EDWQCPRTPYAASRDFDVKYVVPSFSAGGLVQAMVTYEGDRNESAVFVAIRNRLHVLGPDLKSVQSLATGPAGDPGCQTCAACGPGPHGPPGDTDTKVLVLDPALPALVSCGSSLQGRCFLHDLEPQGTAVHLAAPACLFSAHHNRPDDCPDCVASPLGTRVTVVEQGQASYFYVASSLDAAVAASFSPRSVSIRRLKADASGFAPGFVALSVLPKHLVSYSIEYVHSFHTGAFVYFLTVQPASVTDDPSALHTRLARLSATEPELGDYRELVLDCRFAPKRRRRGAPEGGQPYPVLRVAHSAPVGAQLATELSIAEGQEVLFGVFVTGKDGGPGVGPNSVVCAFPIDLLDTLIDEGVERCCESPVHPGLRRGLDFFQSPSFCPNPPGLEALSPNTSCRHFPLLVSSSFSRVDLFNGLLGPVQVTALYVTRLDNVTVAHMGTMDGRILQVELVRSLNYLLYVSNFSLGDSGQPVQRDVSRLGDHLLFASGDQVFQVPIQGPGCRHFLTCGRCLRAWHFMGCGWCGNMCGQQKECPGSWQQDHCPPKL

T2: Recombinant RON-Fc (UniProt Q04912 25-957, limits assumed)
T2 construct: Immobilised on the BIAcore chip; also called RON proteins; not shown: Fc part
T2 sequence (looked up): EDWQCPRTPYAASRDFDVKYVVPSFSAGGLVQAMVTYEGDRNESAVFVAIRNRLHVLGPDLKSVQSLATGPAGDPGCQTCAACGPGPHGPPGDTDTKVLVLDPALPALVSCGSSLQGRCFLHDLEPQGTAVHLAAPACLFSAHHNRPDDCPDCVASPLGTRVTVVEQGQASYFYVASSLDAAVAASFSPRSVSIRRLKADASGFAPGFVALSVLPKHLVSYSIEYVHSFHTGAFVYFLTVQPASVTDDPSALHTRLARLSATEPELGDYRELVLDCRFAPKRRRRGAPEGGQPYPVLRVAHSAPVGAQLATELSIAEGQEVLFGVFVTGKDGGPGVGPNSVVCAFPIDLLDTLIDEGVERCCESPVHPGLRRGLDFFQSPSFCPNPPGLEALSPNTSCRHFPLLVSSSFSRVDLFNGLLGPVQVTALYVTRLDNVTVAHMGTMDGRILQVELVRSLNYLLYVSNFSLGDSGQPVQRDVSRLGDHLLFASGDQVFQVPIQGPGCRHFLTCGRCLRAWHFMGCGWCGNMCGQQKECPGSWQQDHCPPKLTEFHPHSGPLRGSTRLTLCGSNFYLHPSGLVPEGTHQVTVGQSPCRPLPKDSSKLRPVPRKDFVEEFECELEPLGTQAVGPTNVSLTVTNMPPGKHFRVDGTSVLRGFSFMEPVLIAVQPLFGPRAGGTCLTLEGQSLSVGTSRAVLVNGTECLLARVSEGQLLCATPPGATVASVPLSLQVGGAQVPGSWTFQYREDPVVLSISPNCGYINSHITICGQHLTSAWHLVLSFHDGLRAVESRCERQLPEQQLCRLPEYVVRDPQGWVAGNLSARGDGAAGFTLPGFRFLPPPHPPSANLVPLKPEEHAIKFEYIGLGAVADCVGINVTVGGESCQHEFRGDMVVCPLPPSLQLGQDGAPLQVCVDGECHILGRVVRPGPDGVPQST


Columns and labels:
[1] = biological target: T1, recombinant human RON protein (rh-RON …); test: blocking ELISA: serially diluted RON8 pre-incubated with His-tagged recombinant human RON (rh-MSPR), added to plate-immobilised recombinant human MSP (the blocked ligand); bound RON detected with anti-His-tag HRP, absorbance 450 nm
Method: ELISA to Detect RON8 Blocking of MSP Binding to RON: ELISA plates were coated with 100 ng/well carrier-free MSP (R&D Systems) overnight at 4° C. on a rocker. The plate was washed once with 0.2% PBS/T and blocked for 2 hours at 37° C. with 150 μL/well 3% milk. A 15 μg/mL dilution of RON8 was prepared and serially diluted across another ELISA plate. To the RON8, was added 100 ng/well recombinant human MSPR (R&D Systems). The RON8/rh-MSPR complex was allowed to form for 2 hours at room temperature on a rocker. Next, the MSP-coated ELISA plate was washed once with 0.2% PBS/T and 100 μL of the RON8/rh-MSPR complex were added per well. After a 1.5-hour incubation at room temperature, the plate was washed five times with 0.2% PBS/T and incubated for 1 hour at room temperature with a 1:2,000 dilution of anti-His-tag HRP antibody (Sigma), which recognizes a His tag on the recombinant human MSPR protein. The plate was washed five times with 0.2% PBS/T and 100-AL substrate was added per well until a yellow color developed. The reaction was stopped with 50 μL of 1N H₂SO4 and the absorbance at 450 nm determined with a standard plate reader. The results of which are illustrated by FIG. 6A depict the solid-phase blocking characteristic of RON8. The ELISA data determined the IC50 value of RON8 needed to block the interaction of recombinant human RON protein to immobilized recombinant human MSP.

[2] = biological target: T1, recombinant human RON protein (rh-RON …); test: ELISA, receptor immobilised on the plate (given as ED50)
Method: The ability of the anti-RON antibodies, RON6 and RON8, to bind to recombinant human RON receptor and to block the MSP/RON interaction were measured using ELISA. […] Using the same ELISA format, the two antibodies were tested for their ability to block MSP/RON interactions. The measured IC₅₀ values were 46 pM for RON6 and 62 pM for RON8.

Recombinant RON-Fc [3] = biological target: T2, Recombinant RON-Fc; test: comparison of KD values; reference RON1
Recombinant RON-Fc [4] = biological target: T2, Recombinant RON-Fc; test: method and RON form not stated at this place; clone-selection value of paragraph 178; method and RON form not stated
[5] = biological target: T1, recombinant human RON protein (rh-RON …); test: ELISA, blocking of MSP/RON interaction; ligand MSP
Recombinant RON-Fc [6] = biological target: T2, Recombinant RON-Fc; test: SPR (BIACORE 3000), RON-Fc immobilised, antibody injected; BIACORE 3000, RON-Fc immobilized
Method: BIAcore Analysis. The binding kinetics of the antibodies to the RON proteins was determined by using a BIACORE 3000 (BIAcore, Piscataway, N.J.). Recombinant RON-Fc was immobilized onto a sensor chip, and antibody was injected at various concentrations. Sensorgrams were obtained and evaluated using BIA Evaluation 2.0 software to determine rate constants. The affinity constant, KD, was calculated from the ratio of the rate constants Koff/Kₒₙ. The “Kₒₙ, M⁻¹.S⁻¹” and “Koff, S⁻¹” rates of the interaction were used to determine the affinity (Kd, M) of the antibody/receptor interaction. […] For RON8 they were: 3.2e-11, 6.1e6 and 2.0e-4

Binder | IC50 [1] | IC50 (read off the curve) [1] | EC50 [2] | fold greater affinity than RON1 (Recombinant RON-Fc [3]) | Kd (Recombinant RON-Fc [4]) | IC50 [5] | Kd (Recombinant RON-Fc [6]) | koff (Recombinant RON-Fc [6]) | kon (Recombinant RON-Fc [6])
RON8 antibody (human anti-RON monoclonal antibody) (antibody, human IgG1, kappa, V domains shown, Fully human IgG from HuMAb mice) VH: EVQLVESGGGLVQPGGSLRLSCAASGFTFSSYLMTWVRQAPGKGLEWVANIKQDGSEKYYVDSVKGRFTISRDNAKNSLNLQMNSLRAEDTAVYYCTRDGYSSGRHYGMDVWGQGTTVIVSS VL: EIVLTQSPATLSLSPGERATLSCRASQSVSRYLAWYQQKPGQAPRLLIYDASNRATGIPARFSGSGSGTDFTLTISSLEPEDFAVYYCQQRSNWPRTFGQGTKVEIKR | 0.473 nM | ~500 pM | 2.1 pM | 100 fold | 0.023 nM | 0.062 nM | 0.032 nM | 0.0002 s⁻¹ | 6.1e+06 M⁻¹ s⁻¹
RON6 antibody (human anti-RON monoclonal antibody) (antibody, human IgG1, kappa, V domains shown, Fully human IgG from HuMAb mice) VH: QVQLVQSGPEVKKSGSSVKVSCKASGGTFSSDAITWVRQAPGQGLEWMGGIIPILGMANYAQKFQGRVTITADKSTNTAYMELSSLRSEDTAVYFCARVADYYGLGTYYWYFDLWGRGTLVTVSS VL: not shown |  |  | 4.2 pM | 100 fold | 0.045 nM | 0.046 nM | 0.041 nM | 8.6e-05 s⁻¹ | 2.2e+06 M⁻¹ s⁻¹
